Key:
various types of cells = details: cited from earlier work
[1] = system: Murine macrophage-like RAW 264.7; test: LPS- or CIRP-induced NO release by murine macrophages (Griess reaction); format: cell-based; details: 16 h
Experimental: FIG. 2. Dermcidin dose-dependently attenuated LPS- and CIRP-induced NO release by murine macrophages. Murine macrophages were stimulated with LPS or CIRP alone or in the presence of recombinant dermcidin (DCD) for 16 hours, and extracellular levels of nitric oxide (NO) were determined by the Griess Reagent. *, P<0.05 versus “−control”; #, P<0.05 versus “+LPS”, or “+CIRP” alone.
Cell culture: Murine macrophage-like RAW 264.7 were obtained from the American Type Culture Collection (ATCC, Rockville, Md.), and were cultured in DMEM supplemented with 1% penicillin/streptomycin and 10% FBS. Human blood was purchased from the Long Island Blood Bank (Melville, N.Y.), and human peripheral blood mononuclear cells (HuPBMCs) were isolated by density gradient centrifugation through Ficoll (Ficoll-Paque PLUS, Pharmacia, Piscataway, N.J.) as previously described (20-22). […] Subsequently, the cell-conditioned culture media were analyzed respectively for levels of nitric oxide, and other cytokines by the Griess Reaction and Cytokine Antibodies Arrays as previously described (19, 23).
Nitric oxide (NO) assay: The levels of NO in the culture medium were determined indirectly by measuring the NO^2− production with a colorimetric assay based on the Griess reaction (21, 24). NO^2− concentrations were determined with reference to a standard curve generated with sodium nitrite at various dilutions.

Male C57BL/6 mice = test: Hepatic ischemia/reperfusion (I/R) injury in mice; format: in vivo
Experimental: FIG. 4A-4B. Intravenous administration of dermcidin conferred protection against hepatic ischemia/reperfusion (I/R) injury. Male C57BL/6 mice (20-25 g) were subjected to hepatic ischemia/reperfusion by temporal clamping the hepatic artery and portal vein for 60 minutes, which typically produced ischemia in 70% of the liver. At the beginning of the reperfusion, 0.2 ml saline or recombinant dermcidin solution (“DCD”, 5.0 mg/kg BW) was injected via the internal jugular vein. At 24 h after the onset of ischemia, animals were euthanized to harvest blood to measure serum levels of hepatic injury markers such as alanine aminotransferase (ALT) (4A) and aspartate aminotransferase (AST) (4B) using commercial kits.
FIG. 5. DCD monomer protects against hepatic ischemic/reperfusion injury. Representative liver histology at 24 h post the onset of reperfusion. Note a normal liver parenchyma architecture in the “Sham” control, but hepatic necrosis in the “I/R”. […] Liver injury was also assessed histologically using the Suzuki liver injury scores, and expressed as means±S.E. of 3-6 animals per group. *P<0.05 vs. sham; #P<0.05 vs. “I/R” group.
FIG. 6A-6B. DCD protects against hepatic ischemic/reperfusion-induced lung injury. 6A). Histopathological characteristics of lung injury after hepatic I/R. Representative H&E histological images of lung sections at 24 h post the onset of reperfusion. Note a normal lung architecture in the “Sham” control, and extensive lung injury and neutrophil infiltration in the “I/R” group. […] 6B). Histological Scores. Lung injury was assessed histologically using American Thoracic Society Documents' lung injury scores, and expressed as means±S.E. of 3-6 animals per group. *P<0.05 vs. sham; #P<0.05 vs. “I/R” group.
In further experiments, intravenous administration of dermcidin conferred protection against hepatic ischemia/reperfusion (I/R) injury. Male C57BL/6 mice (20-25 g) were subjected to hepatic ischemia/reperfusion by temporal clamping the hepatic artery and portal vein for 60 minutes, which typically produced ischemia in 70% of the liver. […]
A representative liver histology at 24 h post the onset of reperfusion is shown, note a normal liver parenchyma architecture in the “Sham” control, and hepatic necrosis in the “I/R”. […] Liver injury was also assessed histologically using the Suzuki liver injury scores, and expressed as means±S.E. of 3-6 animals per group. *P<0.05 vs. sham; #P<0.05 vs. “I/R” group.
DCD also protects against hepatic ischemic/reperfusion-induced lung injury. […] Lung injury was assessed histologically using American Thoracic Society Documents' lung injury scores, and expressed as means±S.E. of 3-6 animals per group. *P<0.05 vs. sham; #P<0.05 vs. “I/R” group.

[2] = system: human peripheral blood mononuclear cells (HuPBMCs); test: LPS- or HMGB1-induced cytokine/chemokine release by human monocytes (Cytokine Antibody Array); format: cell-based
Experimental: FIG. 3A-3B. Dermcidin modulated LPS- and HMGB1-induced chemokine release by human monocytes. Human peripheral mononuclear cells (huPBMCs) were stimulated with LPS (0.8 μg/ml) or HMGB1 (4.0 μg/ml) alone, or in the presence of DCD (1.0 μg/ml) for 16 hours, and extracellular levels of cytokines and chemokines were determined by Cytokine Antibody Arrays (Panel A, B). A, Representative cytokine antibody arrays. The name of the cytokines and positive controls (“Pos”, or “+Ctrl”) were labeled in the table below. B, Relative cytokine levels. The relative cytokine levels were estimated by measuring the intensity of corresponding signal, and expressed as mean±SEM [% of positive controls (“+Ctrl”) of respective arrays] of two independent experiments. *, P<0.05 versus “untreated”; #, P<0.05 versus “+LPS” or “+HMGB1” alone.
Cell culture: Murine macrophage-like RAW 264.7 were obtained from the American Type Culture Collection (ATCC, Rockville, Md.), and were cultured in DMEM supplemented with 1% penicillin/streptomycin and 10% FBS. Human blood was purchased from the Long Island Blood Bank (Melville, N.Y.), and human peripheral blood mononuclear cells (HuPBMCs) were isolated by density gradient centrifugation through Ficoll (Ficoll-Paque PLUS, Pharmacia, Piscataway, N.J.) as previously described (20-22). Adherent macrophages or HuPBMCs were gently washed with, and cultured in, DMEM before stimulation with LPS (0.4 μg/ml), CIRP (2.0 μg/ml), or HMGB1 (1.0 μg/ml) in the absence or presence of recombinant dermcidin for 16 h. Subsequently, the cell-conditioned culture media were analyzed respectively for levels of nitric oxide, and other cytokines by the Griess Reaction and Cytokine Antibodies Arrays as previously described (19, 23).
Cytokine antibody array: Human Cytokine Antibody Array C3 (Cat. No. AAH-CYT-3-4, RayBiotech Inc., Norcross, Ga., USA), which respectively detect 42 cytokines on one membrane, were used to determine cytokine levels in human monocyte-conditioned culture medium as previously described (21, 24). Briefly, the membranes were sequentially incubated with equal volumes of cell culture medium (200 al), primary biotin-conjugated antibodies, and horseradish peroxidase-conjugated streptavidin. After exposing to X-ray film, the relative signal intensity was determined using the Scion Image software.

[3] = 5.0 mg/kg BW via internal jugular vein at beginning of reperfusion, 24 h after onset of ischemia
[4] = 24 h post the onset of reperfusion
[5] = human monocyte cultures, HMGB1, DCD 1.0 μg/ml, 16 h
[6] = human monocyte cultures, LPS, DCD 1.0 μg/ml, 16 h

In the case of “N-terminal peptide (residue 20-62): N-terminal proteolytic peptide of dermcidin, residue 20-62 (YDPEAASAPGSGNPCHEASAAQKENAGEDPGLARQAPKPRKQR; UniProt P81605 20-62, looked up, fragment)”, the “protection of cells against oxidative or hypoxic stresses” value (various types of cells) is given as “protect various types of cells against oxidative or hypoxic stresses”.

B1: dermcidin: Recombinant human dermcidin, mature form residues 20-110 without signal peptide, N-terminal histidine tag, expressed in E. coli (protein, listed as Homo sapiens)
chain: YDPEAASAPGSGNPCHEASAAQKENAGEDPGLARQAPKPRKQRSSLLEKGLDGAKKAVGGLGKLGKDAVEDLESVGKGAVHDVKDVLDSVL
For B1, the “CIRP-induced NO release” value ([1]; macrophages stimulated with CIRP) was “dose-dependently and significantly attenuated”, the “LPS-induced NO release” value ([1]; macrophages stimulated with LPS) was “dose-dependently and significantly attenuated” and the “serum alanine aminotransferase (ALT), hepatic injury marker” value (Male C57BL/6 mice; [3]) was “significant protection”. For the same molecule, the “serum aspartate aminotransferase (AST), hepatic injury marker” value (Male C57BL/6 mice; [3]) was “significant protection”, the “lung histology (H&E) after hepatic I/R” value (Male C57BL/6 mice; [4]) was “well-preserved tissue structure” and the “immune modulating properties on dimer formation” value ([2]; dimers formed in the absence of reducing agents, in vitro, data not shown) was “remained unaltered”. The TNF secretion ([2]; human monocyte cultures) was “slightly stimulated”, the “HMGB1-induced release of GRO-α” value [2, 5] was “effectively inhibited” and the “HMGB1-induced release of MCP-3” value [2, 5] was “effectively inhibited”. The “LPS-induced release of GRO-α” value [2, 6] was “effectively inhibited” and the “LPS-induced release of MCP-3” value [2, 6] was “effectively inhibited”.

B2: DCD monomer: Recombinant dermcidin 12-14 kDa monomer, seen in the presence of reducing agent DTT (protein, UniProt P81605 20-110, looked up)
Dermcidin: YDPEAASAPGSGNPCHEASAAQKENAGEDPGLARQAPKPRKQRSSLLEKGLDGAKKAVGGLGKLGKDAVEDLESVGKGAVHDVKDVLDSVL
With B2 the “liver histology after hepatic I/R” value (Male C57BL/6 mice; [4]) was “well-preserved tissue structure”.

Reference: patent US11266716B2, “Use of dermcidin in sterile inflammatory conditions” (THE FEINSTEIN INSTITUTES FOR MEDICAL RESEARCH, priority 2015, dated 2022)
